Results as given in patent publication US20090155205A1.

What was measured:
[1] = target: recombinant human TNFα (rhTNFα) (human) (UniProt P01375); test: cell-based or functional assay
[2] = target: recombinant human TNFα (rhTNFα) (human) (UniProt P01375); test: SPR BIAcore, summary table
[3] = target: recombinant human TNFα (rhTNFα) (human) (UniProt P01375); test: SPR BIAcore, biotin-rhTNFα immobilized, Ab 3 nM
[4] = target: recombinant human TNFα (rhTNFα) (human) (UniProt P01375); test: SPR BIAcore, biotin-rhTNFα immobilized, Ab 6 nM
[5] = target: recombinant human TNFα (rhTNFα) (human) (UniProt P01375); test: SPR BIAcore, biotin-rhTNFα immobilized, Ab 13 nM
[6] = target: recombinant human TNFα (rhTNFα) (human) (UniProt P01375); test: SPR BIAcore, biotin-rhTNFα immobilized, Ab 25 nM
[7] = target: recombinant human TNFα (rhTNFα) (human) (UniProt P01375); test: SPR BIAcore, biotin-rhTNFα immobilized, Ab 50 nM
[8] = target: recombinant human TNFα (rhTNFα) (human) (UniProt P01375); test: SPR BIAcore, biotin-rhTNFα immobilized, Ab 100 nM
[9] = target: recombinant human TNFα (rhTNFα) (human) (UniProt P01375); test: SPR BIAcore, biotin-rhTNFα immobilized, Ab 200 nM
[10] = target: recombinant human TNFα (rhTNFα) (human) (UniProt P01375); test: SPR BIAcore, biotin-rhTNFα immobilized, Ab 400 nM
[11] = target: recombinant human TNFα (rhTNFα) (human) (UniProt P01375); test: SPR BIAcore, biotin-rhTNFα immobilized, average of the series

Chain of recombinant human TNFα (rhTNFα) (human) (P01375 77-233 limits assumed): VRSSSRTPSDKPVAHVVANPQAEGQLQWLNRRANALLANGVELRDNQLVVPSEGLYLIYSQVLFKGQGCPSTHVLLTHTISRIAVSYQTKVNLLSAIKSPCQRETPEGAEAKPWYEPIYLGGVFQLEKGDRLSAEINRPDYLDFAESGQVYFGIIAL

Question: MAK 195 F(ab′)2 was tested. Which IC50, neutralization of TNFα-induced L929 cytotoxicity [1] did it give?
Answer: The IC50, neutralization of TNFα-induced L929 cytotoxicity was 0.062 nM.

Question: What about the Kd [2] of the same substance?
Answer: Its Kd is 0.46 nM.

Question: What about the Stoichiometry [2] of the same substance?
Answer: The Stoichiometry was 1.4.

Question: And the koff [2]?
Answer: Its koff is 8.7e-05 s⁻¹.

Question: And the kon [2]?
Answer: Its kon is 190000 M⁻¹ s⁻¹.

Question: What about the Ab, bound, RUs [3] of the same substance?
Answer: The Ab, bound, RUs was 231 RUs.

Question: And the koff [3]?
Answer: The koff was 6.95e-05 s⁻¹.

Question: What about the rhTNFα/Ab [3] of the same substance?
Answer: Its rhTNFα/Ab is 0.26.

Question: And the Ab, bound, RUs [4]?
Answer: The Ab, bound, RUs was 433 RUs.

Question: And the koff [4]?
Answer: The koff was 7.37e-05 s⁻¹.

Question: And the rhTNFα/Ab [4]?
Answer: The rhTNFα/Ab was 0.47.

Question: What about the Ab, bound, RUs [5] of the same substance?
Answer: The Ab, bound, RUs was 708 RUs.

Question: What about the koff [5] of the same substance?
Answer: The koff was 3.66e-05 s⁻¹.

Question: What about the rhTNFα/Ab [5] of the same substance?
Answer: The rhTNFα/Ab was 0.78.

Question: And the Ab, bound, RUs [6]?
Answer: The Ab, bound, RUs was 957 RUs.

Question: And the koff [6]?
Answer: The koff was 4.41e-05 s⁻¹.

Question: And the rhTNFα/Ab [6]?
Answer: Its rhTNFα/Ab is 1.09.

Question: What about the Ab, bound, RUs [7] of the same substance?
Answer: Its Ab, bound, RUs is 1110 RUs.

Question: What about the koff [7] of the same substance?
Answer: Its koff is 3.67e-05 s⁻¹.

Question: And the rhTNFα/Ab [7]?
Answer: Its rhTNFα/Ab is 1.32.

Question: What about the Ab, bound, RUs [8] of the same substance?
Answer: Its Ab, bound, RUs is 1140 RUs.

Question: What about the koff [8] of the same substance?
Answer: Its koff is 3.54e-05 s⁻¹.

Question: And the rhTNFα/Ab [8]?
Answer: The rhTNFα/Ab was 1.39.

Question: What about the Ab, bound, RUs [9] of the same substance?
Answer: The Ab, bound, RUs was 1080 RUs.

Question: What about the koff [9] of the same substance?
Answer: Its koff is 4.54e-05 s⁻¹.

Question: And the rhTNFα/Ab [9]?
Answer: The rhTNFα/Ab was 1.38.

Question: What about the Ab, bound, RUs [10] of the same substance?
Answer: The Ab, bound, RUs was 881 RUs.

Question: What about the koff [10] of the same substance?
Answer: The koff was 5.38e-05 s⁻¹.

Question: And the rhTNFα/Ab [10]?
Answer: The rhTNFα/Ab was 1.2.

Question: What about the koff [11] of the same substance?
Answer: The koff was 4.94e-05 s⁻¹.
